From US12679878B2, “CRF2 receptor agonists and their use in therapy” (SANOFI, priority 2020, dated 2026)
Starred links: 1 amine or outer side, 2 acyl side, 3 side chain; linkers in the order of their positions; H or OH if unused. Non-standard residues stand in square brackets, D forms with d. Groups on a side chain read outwards from the residue. No end group written: not given here. *: point of attachment. C18 diacid = O=C(O)CCCCCCCCCCCCCCCCC(=O)*; γGlu = O=C(O)[C@H](CCC(=O)[*:2])N[*:1]; AEEA = NCCOCCOCC(=O)O; Aib = CC(C)(N)C(=O)O

T1: anti-target CRF1R receptor (UniProt P34998 24-415, limits assumed)
T1 sequence (looked up): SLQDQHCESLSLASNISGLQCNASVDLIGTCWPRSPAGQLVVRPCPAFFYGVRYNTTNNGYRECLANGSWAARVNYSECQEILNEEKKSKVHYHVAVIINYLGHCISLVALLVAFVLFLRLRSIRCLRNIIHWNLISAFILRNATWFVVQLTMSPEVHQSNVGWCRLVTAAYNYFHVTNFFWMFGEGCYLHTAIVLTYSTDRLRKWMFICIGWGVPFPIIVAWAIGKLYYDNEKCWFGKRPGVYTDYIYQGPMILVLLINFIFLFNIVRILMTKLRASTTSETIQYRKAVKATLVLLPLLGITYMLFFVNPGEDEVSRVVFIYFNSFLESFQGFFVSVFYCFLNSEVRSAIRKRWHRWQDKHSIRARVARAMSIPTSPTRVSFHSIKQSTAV


Experiments:
[1] = target: rat CRF2R α receptor (rat, UniProt P47866 20-411); assay: cell-based or functional assay
[2] = target: T1, anti-target CRF1R receptor; assay: cell-based or functional assay

Chain of rat CRF2R α receptor (P47866 20-411): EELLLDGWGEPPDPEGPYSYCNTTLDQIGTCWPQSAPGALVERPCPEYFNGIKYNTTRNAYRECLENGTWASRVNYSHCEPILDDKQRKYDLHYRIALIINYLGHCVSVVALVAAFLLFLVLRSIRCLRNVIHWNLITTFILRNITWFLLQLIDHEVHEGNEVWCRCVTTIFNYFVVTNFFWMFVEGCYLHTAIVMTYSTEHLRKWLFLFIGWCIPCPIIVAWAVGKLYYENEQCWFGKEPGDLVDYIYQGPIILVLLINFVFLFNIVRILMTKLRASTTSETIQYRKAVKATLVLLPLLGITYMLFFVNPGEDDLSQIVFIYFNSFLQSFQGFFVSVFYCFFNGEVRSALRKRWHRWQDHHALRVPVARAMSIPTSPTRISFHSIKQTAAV

| Binder | EC50 [nM], 0% HSA (cAMP, A7R5 cells) [1] [nM] | EC50[nM] 0% HSA (cAMP, CRF1R-overexpression CHO cells) [2] [nM] | Emax (%) (cAMP, CRF1R-overexpression CHO cells) [2] |
| --- | --- | --- | --- |
| IVLSLDVPIKLK([AEEA-AEEA-γGlu-C18 diacid])QILLEQAKQK[Aib]LRAQAETNVRILERV-NH2 (N-terminus assumed; SMILES CC[C@H](C)[C@H](N)C(=O)N[C@H](C(=O)N[C@@H](CC(C)C)C(=O)N[C@@H](CO)C(=O)N[C@@H](CC(C)C)C(=O)N[C@@H](CC(=O)O)C(=O)N[C@H](C(=O)N1CCC[C@H]1C(=O)N[C@H](C(=O)N[C@@H](CCCCN)C(=O)N[C@@H](CC(C)C)C(=O)N[C@@H](CCCCNC(=O)COCCOCCNC(=O)COCCOCCNC(=O)CC[C@H](NC(=O)CCCCCCCCCCCCCCCCC(=O)O)C(=O)O)C(=O)N[C@@H](CCC(N)=O)C(=O)N[C@H](C(=O)N[C@@H](CC(C)C)C(=O)N[C@@H](CC(C)C)C(=O)N[C@@H](CCC(=O)O)C(=O)N[C@@H](CCC(N)=O)C(=O)N[C@@H](C)C(=O)N[C@@H](CCCCN)C(=O)N[C@@H](CCC(N)=O)C(=O)N[C@@H](CCCCN)C(=O)NC(C)(C)C(=O)N[C@@H](CC(C)C)C(=O)N[C@@H](CCCNC(=N)N)C(=O)N[C@@H](C)C(=O)N[C@@H](CCC(N)=O)C(=O)N[C@@H](C)C(=O)N[C@@H](CCC(=O)O)C(=O)N[C@H](C(=O)N[C@@H](CC(N)=O)C(=O)N[C@H](C(=O)N[C@@H](CCCNC(=N)N)C(=O)N[C@H](C(=O)N[C@@H](CC(C)C)C(=O)N[C@@H](CCC(=O)O)C(=O)N[C@@H](CCCNC(=N)N)C(=O)N[C@H](C(N)=O)C(C)C)[C@@H](C)CC)C(C)C)[C@@H](C)O)[C@@H](C)CC)[C@@H](C)CC)C(C)C)C(C)C) [peptide of SEQ ID NO: 46] | 8.97 | > 1000 | 5.88 |
| IVLSLDVPIKLK([AEEA-AEEA-γGlu-C18 diacid])QILLEQERQRKERQQAETNAQILAQV-NH2 (N-terminus assumed; SMILES CC[C@H](C)[C@H](N)C(=O)N[C@H](C(=O)N[C@@H](CC(C)C)C(=O)N[C@@H](CO)C(=O)N[C@@H](CC(C)C)C(=O)N[C@@H](CC(=O)O)C(=O)N[C@H](C(=O)N1CCC[C@H]1C(=O)N[C@H](C(=O)N[C@@H](CCCCN)C(=O)N[C@@H](CC(C)C)C(=O)N[C@@H](CCCCNC(=O)COCCOCCNC(=O)COCCOCCNC(=O)CC[C@H](NC(=O)CCCCCCCCCCCCCCCCC(=O)O)C(=O)O)C(=O)N[C@@H](CCC(N)=O)C(=O)N[C@H](C(=O)N[C@@H](CC(C)C)C(=O)N[C@@H](CC(C)C)C(=O)N[C@@H](CCC(=O)O)C(=O)N[C@@H](CCC(N)=O)C(=O)N[C@@H](CCC(=O)O)C(=O)N[C@@H](CCCNC(=N)N)C(=O)N[C@@H](CCC(N)=O)C(=O)N[C@@H](CCCNC(=N)N)C(=O)N[C@@H](CCCCN)C(=O)N[C@@H](CCC(=O)O)C(=O)N[C@@H](CCCNC(=N)N)C(=O)N[C@@H](CCC(N)=O)C(=O)N[C@@H](CCC(N)=O)C(=O)N[C@@H](C)C(=O)N[C@@H](CCC(=O)O)C(=O)N[C@H](C(=O)N[C@@H](CC(N)=O)C(=O)N[C@@H](C)C(=O)N[C@@H](CCC(N)=O)C(=O)N[C@H](C(=O)N[C@@H](CC(C)C)C(=O)N[C@@H](C)C(=O)N[C@@H](CCC(N)=O)C(=O)N[C@H](C(N)=O)C(C)C)[C@@H](C)CC)[C@@H](C)O)[C@@H](C)CC)[C@@H](C)CC)C(C)C)C(C)C) [peptide of SEQ ID NO: 39] | 2.04 | > 1000 | 13.3 |
